Assay [1] concerns the target T1, recombinant human C1r2s2 tetramer (human, UniProt P09871 16-688; P00736 18-705).
T1 construct: C1s and C1r co-expressed in HEK293 and purified from the supernatant as tetramer; also called hC1r2s2
T1 chain 1: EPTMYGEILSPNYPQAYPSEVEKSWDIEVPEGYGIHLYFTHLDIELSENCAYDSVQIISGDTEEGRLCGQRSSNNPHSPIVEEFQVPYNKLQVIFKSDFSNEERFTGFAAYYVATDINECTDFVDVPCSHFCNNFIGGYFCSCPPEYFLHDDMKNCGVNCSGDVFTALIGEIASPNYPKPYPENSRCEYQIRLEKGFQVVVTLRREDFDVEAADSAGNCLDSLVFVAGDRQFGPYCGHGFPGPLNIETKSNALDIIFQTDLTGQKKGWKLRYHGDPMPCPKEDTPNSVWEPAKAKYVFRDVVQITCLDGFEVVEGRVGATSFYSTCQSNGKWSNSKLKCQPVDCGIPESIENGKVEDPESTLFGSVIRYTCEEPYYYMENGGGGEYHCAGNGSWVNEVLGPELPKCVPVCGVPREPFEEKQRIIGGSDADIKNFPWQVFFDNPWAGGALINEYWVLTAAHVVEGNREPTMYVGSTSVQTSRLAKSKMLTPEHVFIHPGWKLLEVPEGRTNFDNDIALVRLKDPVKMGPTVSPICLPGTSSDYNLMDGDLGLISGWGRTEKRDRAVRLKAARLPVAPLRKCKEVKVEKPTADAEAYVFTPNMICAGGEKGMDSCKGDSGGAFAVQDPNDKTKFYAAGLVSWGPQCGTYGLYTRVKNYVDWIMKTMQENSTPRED
T1 chain 2: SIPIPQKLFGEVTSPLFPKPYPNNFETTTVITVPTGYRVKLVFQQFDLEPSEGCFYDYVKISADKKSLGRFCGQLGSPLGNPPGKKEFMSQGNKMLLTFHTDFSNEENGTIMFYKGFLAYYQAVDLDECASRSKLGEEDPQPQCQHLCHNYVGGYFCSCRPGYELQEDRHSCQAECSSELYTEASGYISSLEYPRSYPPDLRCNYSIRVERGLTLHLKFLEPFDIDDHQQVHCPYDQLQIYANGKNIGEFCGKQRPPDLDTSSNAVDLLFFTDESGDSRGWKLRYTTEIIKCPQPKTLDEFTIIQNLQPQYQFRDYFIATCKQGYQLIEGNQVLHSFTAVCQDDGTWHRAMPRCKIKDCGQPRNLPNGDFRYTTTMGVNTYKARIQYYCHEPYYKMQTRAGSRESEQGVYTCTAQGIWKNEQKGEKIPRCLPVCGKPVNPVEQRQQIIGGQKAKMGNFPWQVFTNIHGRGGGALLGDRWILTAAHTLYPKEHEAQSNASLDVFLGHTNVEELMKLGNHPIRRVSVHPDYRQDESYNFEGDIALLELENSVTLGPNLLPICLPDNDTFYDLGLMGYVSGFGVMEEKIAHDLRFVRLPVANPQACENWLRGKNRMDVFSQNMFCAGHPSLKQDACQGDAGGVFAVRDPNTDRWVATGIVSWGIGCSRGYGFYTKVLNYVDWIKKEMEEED
Put plainly: SPR (Biacore T200), 37 C; ratio of KD at pH 6.0 to KD at pH 7.4. Here is the method:
(§1) The binding property of each sample at pH7.4 and pH6.0 was determined at 37° C. using BIACORE® T200 instrument (Cytiva). […] 20 mM ACES, 150 mM NaCl, 1.2 mM CaCl₂, 1 mg/mL BSA (not containing IgG), 1 mg/mL CMD, 0.05% Tween® 20, 0.005 w/v % NaN₃, pH7.4 or pH6.0 buffer was used as the running buffer. […] The antibody solution was added thereto at 30 μL/min for 120 seconds, the running buffer was then added at 30 μL/min for 180 seconds, and the dissociation constant (KD) of each antibody for hC1r2s2 and cyC1r2s2 was calculated. […] The sensor surface was regenerated every cycle, using 3 M MgCl2 (prepared in-house). The KD value was calculated using BIACORE® T200 evaluation software version 2.0 (Cytiva). The binding strengths under each pH condition were compared by dividing the KD value at pH6.0 with the KD value at pH7.4.

Assay [2] concerns the target T2, recombinant cynomolgus C1r2s2 tetramer (cynomolgus monkey, limits assumed).
T2 construct: also called cyC1r2s2; monkey C1r2s2
T2 chain 1: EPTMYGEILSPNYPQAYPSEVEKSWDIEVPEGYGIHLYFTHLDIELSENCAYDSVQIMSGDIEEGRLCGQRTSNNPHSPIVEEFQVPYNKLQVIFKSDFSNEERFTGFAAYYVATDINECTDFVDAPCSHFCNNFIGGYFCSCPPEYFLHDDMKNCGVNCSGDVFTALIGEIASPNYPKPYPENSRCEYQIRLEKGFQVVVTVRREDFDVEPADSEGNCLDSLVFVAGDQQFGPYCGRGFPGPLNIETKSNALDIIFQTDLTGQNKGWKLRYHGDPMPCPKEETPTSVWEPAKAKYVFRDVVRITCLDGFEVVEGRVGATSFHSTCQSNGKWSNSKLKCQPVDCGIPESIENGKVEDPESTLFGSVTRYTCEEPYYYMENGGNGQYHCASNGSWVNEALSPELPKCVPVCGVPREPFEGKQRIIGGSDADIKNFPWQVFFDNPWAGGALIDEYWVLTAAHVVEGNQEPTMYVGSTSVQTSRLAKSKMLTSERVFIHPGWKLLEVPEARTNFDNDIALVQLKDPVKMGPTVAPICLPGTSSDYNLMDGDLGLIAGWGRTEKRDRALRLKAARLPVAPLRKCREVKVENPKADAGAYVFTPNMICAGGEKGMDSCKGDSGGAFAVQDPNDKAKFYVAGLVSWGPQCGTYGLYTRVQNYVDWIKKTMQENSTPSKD
T2 chain 2: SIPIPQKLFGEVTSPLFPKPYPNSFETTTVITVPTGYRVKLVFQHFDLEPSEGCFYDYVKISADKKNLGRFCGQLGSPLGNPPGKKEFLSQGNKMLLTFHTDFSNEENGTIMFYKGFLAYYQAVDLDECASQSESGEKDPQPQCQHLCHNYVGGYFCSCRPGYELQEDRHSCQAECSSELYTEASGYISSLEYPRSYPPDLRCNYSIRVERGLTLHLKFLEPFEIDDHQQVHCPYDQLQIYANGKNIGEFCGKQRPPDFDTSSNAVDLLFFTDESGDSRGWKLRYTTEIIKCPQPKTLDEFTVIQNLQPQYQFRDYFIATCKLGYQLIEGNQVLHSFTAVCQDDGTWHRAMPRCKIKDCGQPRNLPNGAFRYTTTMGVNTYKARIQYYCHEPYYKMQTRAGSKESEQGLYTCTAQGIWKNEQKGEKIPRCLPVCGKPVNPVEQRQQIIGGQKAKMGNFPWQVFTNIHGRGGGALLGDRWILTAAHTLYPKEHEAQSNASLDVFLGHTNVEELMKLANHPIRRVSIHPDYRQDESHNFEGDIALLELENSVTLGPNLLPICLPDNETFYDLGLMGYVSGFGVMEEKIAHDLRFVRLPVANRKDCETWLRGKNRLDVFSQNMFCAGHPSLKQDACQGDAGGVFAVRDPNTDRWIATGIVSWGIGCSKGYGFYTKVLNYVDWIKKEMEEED
The assay is described as above. Here is the method: as §1

Assay [3] has as its target T1, recombinant human C1r2s2 tetramer. The assay is described as follows: SPR (Biacore T200), 37 C, pH 6.0; hC1r2s2 captured by IPN009, antibody as analyte. Here is the method:
as §1
Background: Surface plasmon resonance follows binding to a sensor surface in real time, without labels.

For assay [4] the target is unchanged. Put plainly: SPR (Biacore T200), 37 C, pH 7.4; hC1r2s2 captured by IPN009, antibody as analyte. Here is the method: as §1
For assay [5], the target named is T2, recombinant cynomolgus C1r2s2 tetramer. Put plainly: SPR (Biacore T200), 37 C, pH 6.0; cyC1r2s2 captured by IPN009, antibody as analyte. The method, then:
as §1

The target is the same in assay [6]. The assay is described as follows: SPR (Biacore T200), 37 C, pH 7.4; cyC1r2s2 captured by IPN009, antibody as analyte. Here is the method: as §1

B1: COS0637pHv16-G1A3FcgSil+LowpI (antibody, V domains shown)
VH: QVQLVESGGGVVQPGRSLRLSCAASGFTFSAYTMNWIRQPPGKGLEWIGLIYGSGHEFYASWAEERVTISVDTSKNQFSLKLSSVTAADTAVYYCARGRSKNYNSDFHLWGQGTLVTVSS
VL: DIQMTQSPSSLSASVGDRVTITCQAHEILHDKKNLAWYQQKPGQPPKLLIYGASQRESGVPSRFSGSGSGTDFTLTISSLQPEDFATYYCHGEFPHSSADLNHFGQGTKVEIKR
notes: VH 36, VL 55, CH 45, CL 23
Turning to B1, the results for the “KD (pH 6.0)/KD (pH 7.4)” value in assay [1] and in assay [2] were 161 and 465, respectively. Besides, the Kd – broadly, a measure of binding affinity in units of concentration – is 29.2 nM in assay [3], 0.181 nM in assay [4], 91.2 nM in assay [5] and 0.196 nM in assay [6].

B2: COS0637pHv21-G1A3FcgSil+LowpI (antibody, V domains shown)
VH: QVQLVESGGGVVQPGRSLRLSCAASGFTFSAYAMNWIRQPPGKGLEWIGLIYGSGHEFYASWAEERVTISVDTSKNQFSLKLSSVTAADTAVYYCARGRSKNYNSDFHLWGQGTLVTVSS
VL: DIQMTQSPSSLSASVGDRVTITCQAHEILHDKKNLAWYQQKPGQPPKLLIYSASILESGVPSRFSGSGSGTDFTLTISSLQPEDFATYYCHGEFSHGSGDLNHFGQGTKVEIKR
notes: VH 24, VL 47, CH 45, CL 23
For the molecule B2, the “KD (pH 6.0)/KD (pH 7.4)” value came to 120 in assay [1] and 182 in assay [2]. Further, the Kd in assay [3] was determined as 31.3 nM; in assay [4], 0.26 nM; in assay [5], 62.9 nM; in assay [6], 0.346 nM.

B3: COS0637pHv23-G1A3FcgSil+LowpI (antibody, V domains shown)
VH: QVQLVESGGGVVQPGRSLRLSCAASGFTFSAYAMNWIRQPPGKGLEWIGLIYGTGHEFYASWAEERVTISVDTSKNQFSLKLSSVTAADTAVYYCARGRSKNYNSDFHIWGQGTLVTVSS
VL: DIQMTQSPSSLSASVGDRVTITCQAHEILHDKKNLAWYQQKPGQPPKLLIYSASILESGVPSRFSGSGSGTDFTLTISSLQPEDFATYYCHGEFSHGSADLNHFGQGTKVEIKR
notes: VH 28, VL 51, CH 45, CL 23
Take B3: the “KD (pH 6.0)/KD (pH 7.4)” value in assay [1] turned out to be 110; in assay [2] it was 139. Moreover, the Kd in assay [3] was 27.4 nM; in assay [4] it was 0.249 nM; in assay [5], 46.3 nM; in assay [6] it was 0.334 nM.

B4: COS0637pHv25-G1A3FcgSil+LowpI (antibody, V domains shown)
VH: QVQLVESGGGVVQPGRSLRLSCAASGFTFSAYAMNWIRQPPGKGLEWIGLMYGSGHEFYASWAEERVTISVDTSKNQFSLKLSSVTAADTAVYYCARGRSKNYNSDFHLWGQGTLVTVSS
VL: DIQMTQSPSSLSASVGDRVTITCQAHEILHDKKNLAWYQQKPGQPPKLLIYGASQRESGVPSRFSGSGSGTDFTLTISSLQPEDFATYYCHGEFPHSSADLNHFGQGTKVEIKR
notes: VH 32, VL 55, CH 45, CL 23
Regarding B4, the “KD (pH 6.0)/KD (pH 7.4)” value in assay [1] is 108; in assay [2], 276. Further, the Kd came to 21.3 nM in assay [3], 0.198 nM in assay [4], 67.1 nM in assay [5] and 0.243 nM in assay [6].

The record behind these values is patent US20240287163A1 (Chugai, published 2024).
